US20200255508A1 (AbbVie / Abbott, published 2020)
Where a chain is given by its changes, count along the chain named.

B1: E9.4 (antibody, V domains shown)
VH: EVQLQESGPGLVKPSETLSLTCTVSGGSISSSSYYWGWIRQPPGKGLEWIGDIYYTGSTYYNPSLKSRVTISVDTSKNQFSLKLSSVTAADTAVYYCARYDVSLGGSSDHWGQGTLVTVSS
VL: SYELTQPPSVSVSPGQTASITCSGQRLGDKYASWYQQKPGQSPVLVIYEDSKRPSGIPERFSGSNSGDTATLTISGTQPMDEADYYCQAWDRDTGVFGYGTKVTVL
notes: also called DLL4-E9-4 hIgG1/L
B2: E9.10H (antibody, V domains shown)
VH: B1 VH with S33G, S58N, S67N, Y100E, D101E, S103I, S107G, S108A, H110Q
VL: SYELTQPPSVSVSPGQTASITCSGESLGDKYVSWYQQKPGQSPVLVIYEDSKRPSGIPERFSGSNSGDTATLTISGTQAMDEADYYCQAWDGETGVFGSGTKVT
B3: E9.12B (antibody, V domains shown)
VH: B1 VH with S33N, Y100E, D101A, L104F, S107G, S108A, H110S
VL: B2 VL with E25D, S26G, K52T, A79P, G92S, T94S
B4: E9.71(M)-3 (antibody, human IgG1, V domains shown)
VH: B1 VH with Y100Q, D101A, V102L, S103A, L104M, S107G, H110K
VL: YELTQPPSVSVSPGQTASITCSGQRLGDKYASWYQQKPGQSPVLVIYEDSKRPSGIPERFSGSNSGDTATLTISGTQPMDEADYYCQAWDRDTGVFGGGTKLTVLG
B5: E9.10C (antibody, V domains shown)
VH: B1 VH with S32G, Y100Q, D101A, S103M, L104Y, S107G, H110N
VL: B2 VL with E25D, K52E, G92S
B6: E9.1F (antibody, V domains shown)
VH: B1 VH with S32G, Y54N, T56I, Y100E, D101A, L104F, S107G, S108A, H110S
VL: B1 VL with Q25D, A32V, K52Q, P79A, R92M, D93E, T94A, Y99S
notes: also called E9.IF
B7: E9.66 (antibody, V domains shown)
VH: B1 VH with Y100E, D101G, S103P, S107G, S108A, H110K
VL: B1 VL
notes: also called DLL4-E9-66 hIgG1/L
B8: E9.71(M) (antibody, human IgG1, V domains shown)
VH: B1 VH with Y100Q, D101A, V102L, S103A, L104M, S107G, H110K
VL: SYELTQPPSVSVSPGQTASITCSGQRLGDKYASWYQQKPGQSPVLVIYEDSKRPSGIPERFSGSNSGDTATLTISGTQPMDEADYYCQAWDRDTGVFGGGTKLTVLG
B9: E9.17 (antibody, V domains shown)
VH: B1 VH with Y100E, D101E, V102A, S103I, S107G, H110Y
VL: B1 VL
notes: also called DLL4-E9-17 hIgG1/L
B10: E9.10E (antibody, V domains shown)
VH: B1 VH with S30N, S32G, S33N, Y54S, Y100E, S103M, L104Y, S107G, S108G, H110S
VL: B2 VL with S26G, K52E, G92S, T94A
B11: E9.5E (antibody, V domains shown)
VH: B1 VH with Y54N, T56I, Y100E, D101S, S103P, S107G, S108A, H110E
VL: B2 VL with E25D, S26M, K52Q, A79P, G92S
B12: E9.38 (antibody, V domains shown)
VH: B1 VH with Y100E, S103I, G105R, S107G, H110Y
VL: B1 VL with A32V, T94V, Y99S
notes: also called DLL4-E9-38 hIgG1/L
B13: E9.71(L) (antibody, human IgG1, V domains shown)
VH: B1 VH with Y100Q, D101A, V102L, S103A, S107G, H110K
VL: B8 VL
notes: Methionine in CDR-H3 of E9-71 changed to leucine
B14: E9.48 (antibody, V domains shown)
VH: B1 VH with S33G, Y54N, T56R, Y100E, S103I, G105R, S107G, H110Y
VL: B1 VL
notes: also called DLL4-E9-48 hIgG1/L
B15: E9.11 (antibody, V domains shown)
VH: B1 VH with Y100E, D101A, S103P, S107G, H110Y
VL: B1 VL
notes: also called DLL4-E9-11 hIgG1/L
B16: E9.22 (antibody, V domains shown)
VH: B1 VH with S31N, S33R, Y35H, S67G, Y100E, S103I, G105R, S107G, H110Y
VL: B1 VL
notes: also called DLL4-E9-22 hIgG1/L
B17: E9.7E (antibody, V domains shown)
VH: B1 VH with T56A, S67D, Y100E, V102M, S103I, S107G, S108A, H110N
VL: B2 VL with E25D, S26R, K52E, G92S, T94A
B18: A10.K42 (antibody, V domains shown)
VH: EVQLVESGGGLVQPGGSLRLSCAASGFTFQSHWMSWVRQAPGKGLEWVAMISYDGTIKYYADSVKGRFTISRDNSKNTLYLQLNSLRAEDTAVYYCAKAGGGNVGFDIWGQGTMVTVSS
VL: SYELTQPPSVSVSPGQTASITCSADKLGTKYVSWYQQKPGQSPVLVIYQDAKRPSGIPERFSGSNSGNTATLTISGTQTMDEADYLCQSWDRSDVVFGGGTKLTVL

Key:
[1] = biological target: T1, human DLL4 extracellular domain (human, UniProt Q9NR61 27-529); experiment: Biacore SPR;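 also: surface plasmon resonance on a Biacore instrument, antibodies captured on immobilized anti-human Fc, purified recombinant DLL4 extracellular domain injected as analyte, binding followed over time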
T1 construct: extracellular domain; coated on plates in the sVEGFR1 assay; also called huDLL4 ECD; Human DLL4 ECD
Procedure: (§1) Binding of DLL4 antibodies to a purified recombinant DLL4 extracellular domain is determined by surface plasmon resonance-based measurements with a Biacore® instrument (either a Biacore 2000, Biacore 3000, or Biacore T100, GE Healthcare, Piscataway, N.J. US) using running buffer HBS-EPB (10 mM HEPES [pH 7.4], 150 mM NaCl, 3 mM EDTA, 0.1 mg/ml BSA and 0.005% surfactant P20) at 25° C. For example, approximately 9000 RU of goat anti-human Fc specific polyclonal antibody (Thermo Fisher Scientific Inc., Rockford, Ill., US) diluted in 10 mM sodium acetate (pH 4.5) is directly immobilized across a CM5 research grade biosensor chip using a standard amine coupling kit according to manufacturer's instructions and procedures at 25 μg/ml. Unreacted moieties on the biosensor surface are blocked with ethanolamine. For kinetic analysis, rate equations derived from the 1:1 Langmuir binding model are fitted simultaneously to multiple antigen injections (using global fit analysis) with the use of Scrubber 2 (BioLogic Software). […] The equilibrium dissociation constant KD (M) of the reaction between antibodies and the target antigen is then calculated from the kinetic rate constants by the following formula: KD=Koff/Kₒₙ. Binding is recorded as a function of time and kinetic rate constants are calculated. In this assay, on-rates as fast as 10⁶ M⁻¹s⁻¹ and off-rates as slow as 10⁻⁶ s⁻¹ can be measured.

[2] = biological target: T2, mouse DLL4 extracellular domain (mouse, UniProt Q9JI71 27-532); experiment: Biacore SPR;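 also: surface plasmon resonance on a Biacore instrument, antibodies captured on immobilized anti-human Fc, purified recombinant DLL4 extracellular domain injected as analyte, binding followed over time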
T2 construct: extracellular domain; also called muDLL4 ECD; Mouse DLL4 ECD
T2 sequence (Q9JI71 27-532): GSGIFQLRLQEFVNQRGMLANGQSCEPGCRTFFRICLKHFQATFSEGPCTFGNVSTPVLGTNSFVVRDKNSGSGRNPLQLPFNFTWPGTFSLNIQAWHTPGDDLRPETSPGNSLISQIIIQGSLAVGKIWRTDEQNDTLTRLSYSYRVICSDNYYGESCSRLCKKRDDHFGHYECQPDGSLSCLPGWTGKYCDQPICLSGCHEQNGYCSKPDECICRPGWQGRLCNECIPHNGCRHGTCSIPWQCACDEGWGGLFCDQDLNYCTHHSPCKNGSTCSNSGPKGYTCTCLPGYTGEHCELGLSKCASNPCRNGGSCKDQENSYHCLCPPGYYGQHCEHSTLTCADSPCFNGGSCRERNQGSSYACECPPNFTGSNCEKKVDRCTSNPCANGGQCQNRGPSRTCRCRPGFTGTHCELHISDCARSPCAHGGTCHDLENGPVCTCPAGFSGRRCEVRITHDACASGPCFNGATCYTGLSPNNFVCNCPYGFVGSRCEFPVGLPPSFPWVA
Procedure: as §1

[3] = biological target: T3, human DLL4 on the cell surface (human, UniProt Q9NR61 27-685); experiment: FACS on DLL4 cells
T3 construct: whole, on cells; also called HEK293-hDLL4; hDLL4-293G

[4] = biological target: T4, mouse DLL4 on the cell surface (mouse, UniProt Q9JI71 27-686); experiment: FACS on DLL4 cells
T4 construct: whole, on cells; also called HEK293-mDLL4; mDLL4-293G
T4 sequence (Q9JI71 27-686): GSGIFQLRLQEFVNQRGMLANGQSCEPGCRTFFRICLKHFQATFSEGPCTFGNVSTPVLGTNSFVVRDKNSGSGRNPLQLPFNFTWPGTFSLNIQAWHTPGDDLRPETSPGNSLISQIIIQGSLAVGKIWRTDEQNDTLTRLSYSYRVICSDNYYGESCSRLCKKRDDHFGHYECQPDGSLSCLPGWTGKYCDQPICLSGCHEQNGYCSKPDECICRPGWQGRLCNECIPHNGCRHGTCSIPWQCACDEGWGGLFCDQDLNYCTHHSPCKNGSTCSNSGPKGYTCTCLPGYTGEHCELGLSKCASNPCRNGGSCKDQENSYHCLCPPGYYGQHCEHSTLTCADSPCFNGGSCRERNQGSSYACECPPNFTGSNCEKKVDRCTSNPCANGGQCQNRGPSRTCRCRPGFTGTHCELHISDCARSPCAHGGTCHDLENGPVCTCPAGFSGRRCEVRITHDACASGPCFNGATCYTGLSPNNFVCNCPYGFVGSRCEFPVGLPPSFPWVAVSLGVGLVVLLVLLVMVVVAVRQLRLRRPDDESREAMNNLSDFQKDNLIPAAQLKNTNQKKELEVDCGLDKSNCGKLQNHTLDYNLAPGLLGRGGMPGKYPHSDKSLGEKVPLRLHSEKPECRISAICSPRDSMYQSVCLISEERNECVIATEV

[5] = biological target: T3, human DLL4 on the cell surface; experiment: competition FACS, competitor huNotch-1;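 also: stable cell lines displaying human or mouse DLL4 on their surface, Notch binding detected by flow cytometry via R-phycoerythrin streptavidin fluorescence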
Procedure: (§2) Notch blocking assay: Briefly, stable cell lines overexpressing cell-surface DLL4 were harvested from tissue culture flasks and re-suspended in phosphate buffered saline (PBS) containing 1% bovine serum albumin and 1 mM CaCl₂ (FACS buffer). HEK293-hDLL4 or HEK293-mDLL4 cells were dispensed into 96-well plate (v-bottom) at 1.5×10⁵ cells/well in FACS buffer. […] After washing the cells two times with FACS buffer, 50 μL of R-phycoerythrin-conjugated streptavidin (1:150 dilution in FACS buffer) (Jackson ImmunoResearch, West Grove, Pa., US, catalog no. 016-110-084) were added. Following an incubation on ice (4° C., 60 minutes), cells were washed three times and resuspended in FACS buffer. Fluorescence was measured using a Becton Dickinson FACSCalibur-HTS (Becton Dickinson, San Jose. Calif.).

[6] = biological target: T4, mouse DLL4 on the cell surface; experiment: competition FACS, competitor huNotch-1;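 also: stable cell lines displaying human or mouse DLL4 on their surface, Notch binding detected by flow cytometry via R-phycoerythrin streptavidin fluorescence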
Procedure: as §2

[7] = biological target: T3, human DLL4 on the cell surface; experiment: cell-based or functional assay

Binder	Kd [1] [nM]	koff [1] [s⁻¹]	kon [1] [M⁻¹ s⁻¹]	Kd [2] [nM]	koff [2] [s⁻¹]	kon [2] [M⁻¹ s⁻¹]	EC50 [3] [nM]	EC50 [4] [nM]	IC50 [5] [nM]	IC50 [6] [nM]	Inhibition of Notch activation via huDLL4 cells, coculture (IC50, nM) [7] [nM]	binding result [2]
B1	0.58	3.31e-05	56700	1.12	6.01e-05	53800	1.63	0.63	4.3	0.3		
B2	0.57	5.9e-05	104000	0.34	2.23e-05	65300	3.52	0.82	5.65	0.6		
B3	0.02	3.1e-06	151000	0.18	1.47e-05	83500	3.34	0.71	4.44	0.37		
B4											0.65	
B5	0.38	4.59e-05	120000	1.6	0.000121	73700	3.15	0.88	3.03	0.26	0.85	
B6	0.05	1.16e-05	218000				2.65	0.37	6.55	0.65		
B7	0.078	2.5e-06	32600	0.5	1.44e-05	28900	2.02	0.7	5.03	0.99		
B8							0.27	0.29	2.12	0.18		
B9	0.1	4.4e-06	43900	0.38	1.41e-05	37000	8	2.57	19.8		1	
B10	0.21	4.62e-05	218000	0.62	9.41e-05	151000	5.1	1.19	3.83	0.36		
B11	0.04	6e-06	150000	0.02	2e-06	89000	2.7	0.89	3.76	0.34		
B12	2.75	3.48e-05	12700	9.27	0.000171	18400	1.66	0.13	7.76	1.2		
B13							0.22	0.47	1.82	0.21	2.4	
B14	6.92	7.59e-05	11000	2.53	4.17e-05	16500			9.12	1.3		
B15	0.48	1.74e-05	36300	0.5	1.39e-05	27700	4.46	1.45	14.8	2.06		
B16	8.46	0.000331	39100	3.5	0.000133	37800	34.3	37.4	21.1	2.63		
B17	0.27	4.12e-05	152000	2.3	0.000221	95300	4.46	1.94	4	0.33	0.41	
B18	4.06	0.000406	100000									no binding
